Measurements: patent US8431396B2, “Anti-angiogenic peptides” (The Cleveland Clinic Foundation, priority 2003, dated 2013)

What was measured:
VEGFR-2 (KDR) = molecular target: T1, VEGFR-2 (KDR) (Homo sapiens, UniProt P35968); experiment: [125I]VEGF binding in transfected PAEKDR cell lines; details: PAEKDR cells expressing mutant TIMP3 vs vector
T1 construct: To determine whether these receptor isoforms represent full-length VEGFR-2; expressed in transfected cells; host or cells: porcine aortic endothelial (PAE) cells
T1 sequence (P35968 20-1356): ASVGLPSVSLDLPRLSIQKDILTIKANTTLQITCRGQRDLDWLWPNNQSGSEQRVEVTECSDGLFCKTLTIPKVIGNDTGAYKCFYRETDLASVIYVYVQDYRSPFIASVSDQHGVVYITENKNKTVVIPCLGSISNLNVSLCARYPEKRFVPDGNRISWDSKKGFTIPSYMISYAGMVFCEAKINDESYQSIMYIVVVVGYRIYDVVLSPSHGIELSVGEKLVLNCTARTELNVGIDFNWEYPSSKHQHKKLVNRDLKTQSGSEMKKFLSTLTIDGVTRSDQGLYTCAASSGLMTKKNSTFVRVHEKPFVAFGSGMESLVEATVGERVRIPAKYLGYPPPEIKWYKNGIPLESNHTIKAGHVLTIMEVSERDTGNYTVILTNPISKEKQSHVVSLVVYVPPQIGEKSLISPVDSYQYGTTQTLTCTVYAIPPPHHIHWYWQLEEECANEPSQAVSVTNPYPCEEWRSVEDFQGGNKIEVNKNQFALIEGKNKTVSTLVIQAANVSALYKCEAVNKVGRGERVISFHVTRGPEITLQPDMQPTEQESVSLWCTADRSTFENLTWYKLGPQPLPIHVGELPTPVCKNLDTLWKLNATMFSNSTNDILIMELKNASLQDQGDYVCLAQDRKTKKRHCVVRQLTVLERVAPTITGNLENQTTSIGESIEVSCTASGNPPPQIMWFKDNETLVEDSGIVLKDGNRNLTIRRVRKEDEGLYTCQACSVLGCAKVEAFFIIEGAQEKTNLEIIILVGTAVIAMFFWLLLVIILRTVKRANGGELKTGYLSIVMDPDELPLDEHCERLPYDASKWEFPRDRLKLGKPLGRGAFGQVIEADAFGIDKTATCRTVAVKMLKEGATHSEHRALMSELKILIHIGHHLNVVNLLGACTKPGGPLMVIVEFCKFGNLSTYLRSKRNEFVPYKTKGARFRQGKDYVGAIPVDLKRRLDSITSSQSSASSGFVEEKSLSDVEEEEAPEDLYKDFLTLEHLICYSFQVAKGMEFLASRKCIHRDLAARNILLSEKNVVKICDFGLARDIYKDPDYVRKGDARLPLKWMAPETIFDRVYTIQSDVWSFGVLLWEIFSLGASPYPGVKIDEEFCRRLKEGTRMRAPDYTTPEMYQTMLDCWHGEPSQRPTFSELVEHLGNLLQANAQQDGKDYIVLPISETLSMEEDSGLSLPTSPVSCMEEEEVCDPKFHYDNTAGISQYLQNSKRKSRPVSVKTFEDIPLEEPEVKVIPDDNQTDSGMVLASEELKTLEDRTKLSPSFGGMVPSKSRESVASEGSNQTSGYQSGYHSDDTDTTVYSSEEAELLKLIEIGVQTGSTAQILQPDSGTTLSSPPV
Protocol: PAEKDR cells were transfected with TIMP3 cDNA or empty vector using Lipofectamine reagent (Gibco-BRL Rockville, Md.). Stable clones were isolated using Hygromycin selection.
After washing, the cell monolayers were solubilized with lysis buffer (20 mM Tris HCl pH 7.5, 1% triton X 100 and 10% glycerol), and the radioactivity measured in a gamma counter.

KDR = molecular target: T2, KDR (Homo sapiens, UniProt P35968); experiment: VEGF-stimulated KDR tyrosine phosphorylation in membrane fractions (Western blot); type: cell-based; details: mutant cells; data not shown
T2 construct: To determine whether these receptor isoforms represent full-length VEGFR-2; expressed in transfected cells; host or cells: porcine aortic endothelial (PAE) cells
T2 sequence (P35968 20-1356): as above
Protocol: 2 day serum free conditioned medium (CM) was collected from subconfluent cells cultured on six-well plates (Costar). In some cases the CM was further concentrated with heparin-agarose gels (Bio-rad). The cell monolayer was dislodged from the culture plates following a 10 min incubation in Ca2+, Mg2+ free phosphate buffered saline (PBS) containing 2.5 mM EDTA. After several rinses in PBS and water, the ECM was scraped in a small volume of electrophoresis sample buffer without reducing agent for analyses. Plasma membrane (PM) fractions were prepared from cells centrifuged at 500 g and 4° C. for 5 min The supernatant was discarded and the cell pellets were resuspended in PBS containing protease inhibitors, lysed with a 26-gauge syringe needle, and centrifuged at 3,000 g at 4° C. for 15 minutes. The supernatant was centrifuged at […] at 4° C. for 1 hr. The PM pellets were suspended in lysis buffer containing protease inhibitors. In some instances the membrane fraction of cells was prepared using ProteoExtract Subcellular Proteome Extaction Kit (EMD Biosciences, Inc).
Cell fractions or immunoprecipitates of the lysates with the indicated antibodies were subjected to SDS-PAGE. Proteins were detected with either a HRP-conjugated anti-rabbit or anti mouse IgG antibody (Amersham Pharmacia Biotech., Piscataway, N.J.) followed by ECL. […]

soluble VEGFR-2 = experiment: Soluble VEGFR-2 (sKDR) in conditioned medium (ELISA); type: cell-based, human; details: mutant cells; data not shown
[1] = system: ERK1 (p44) and ERK2 (p42); experiment: VEGF-stimulated ERK1/2 phosphorylation in transfected PAEKDR cells (Western blot); type: cell-based; details: mutant cells; data not shown
Protocol: Cell fractions or immunoprecipitates of the lysates with the indicated antibodies were subjected to SDS-PAGE. Proteins were detected with either a HRP-conjugated anti-rabbit or anti mouse IgG antibody (Amersham Pharmacia Biotech., Piscataway, N.J.) followed by ECL. The blots were restripped with Western ReProbe™ solution (Genotech) for 30 minutes and reprobed as indicated.
Activation of MAP kinase is a known activated VEGFR-2 downstream signaling event. We measured the phosphorylation of two MAP kinases, ERK1 (p44) and ERK2 (p42) by western blot analysis of membrane fractions in WT and mutant ECs.

MMPs = experiment: Reverse zymography of ECM and CM of transfected PAEKDR cells; type: biochemical; details: PAEKDR cells expressing WT or mutant TIMP3
Protocol: Conditioned medium, cell lysates and ECM fractions from transfected cells were prepared as described previously (Qi et al., 2002). Equal amounts of protein were loaded onto a 12% gel with 1 mg/ml gelatin plus RPE cell-conditioned media, as a source of MMPs, for reverse zymography and processed as described previously (Pavloff et al., 1992).

PAEKDR cells [2] = experiment: VEGF-stimulated migration (modified Boyden chamber) of transfected PAEKDR cells; type: cell-based, porcine; details: VEGF 50 ng/ml
Protocol: A modified Boyden chamber assay was carried out as described previously 34. Briefly, 8.0 μm pore PVPF polycarbonate membranes were pre-coated with 100 μg/ml collagen type I in 0.2 N acetic acid (Cohesion technologies, INC. Pala Alto, Calif.). […] Chamber was then incubated for 4 hrs at 37° C. in a 5% CO2 humidified incubator. Cells remaining on the top of the filter were removed. Cells on the bottom surface of the filter were fixed, stained and mounted. The number of migrating cells per well was counted microscopically.

PAEKDR cells [3] = experiment: VEGF-stimulated actin reorganization / membrane ruffles; type: cell-based, porcine; details: 50 ng/ml VEGF for 15 min
Protocol: (§1) For immunostaining, subconfluent cells cultured on Falcon cultureslides (BD, Biosciences) were used. For surface KDR detection, cells were fixed in 1% paraformaldehyde for 10 min at 4° C. Following blocking with 1% BSA cells were incubated with anti-extracellular VEGFR-2 monoclonal antibody for 1 h at room temperature. Surface KDR was detected with biotinylated anti-mouse […] (1:1000) and Texas Red avidin D (1:1500) using standard procedures. […] The cells were fixed with 3.7% paraformaldehyde in PBS for 30 min at 4° C. and permeabilized with 0.2 Triton X-100 for 20 min at room temperature. Following rinsing with PBS the cells were incubated with fluorescein isothiocyanate (FITC)-labeled phalloidin in PBS (0.66 μg/ml, Sigma) for 20 min at room temperature washed with PBS and analyzed by fluorescence microscopy.

PAEKDR cells [4] = experiment: Tube formation assay in type 1 collagen gels; type: cell-based, porcine; details: 50 ng/ml VEGF; three-dimensional collagen gels
Protocol: Type 1 collagen was mixed with 10×DMEM and 0.1 M NaOH (8:1:1), adjusted to a solution containing 10 μg/ml growth factor reduced matrigel matrix (BD, Biosciences), and then distributed in 48-well dishes. […] After 4 h of incubation at 37° C., a second layer of collagen was added, and cultures were kept under the same conditions as above described. Tube formation was examined using a phase-contrast microscopy at the indicated time points.

surface KDR = experiment: Surface KDR immunofluorescence staining; type: cell-based; details: clone KDR-2 antibody; data not shown
Protocol: as §1

increase in [125I] VEGF binding (VEGFR-2 (KDR)): 2-3 fold | level of phosphorylated KDR after VEGF stimulation vs mock cells (KDR): ~2 fold
B1: mutant TIMP3: Sorsby fundus dystrophy-related S156C mutant TIMP3 expressed in PAEKDR endothelial cells (protein)
chain: CTCSPSHPQDAFCNSDIVIRAKVVGKKLVKEGPFGTLVYTIKQMKMYRGFTKMPHVQYIHTEASESLCGLKLEVNKYQYLLTGRVYDGKMYTGLCNFVERWDQLTLSQRKGLNYRYHLGCNCKIKSCYYLPCFVTSKNECLWTDMLSNFGYPGYQCKHYACIRQKGGYCSWYRGWAPPDKSIINATDP
cleaved sVEGFR-2 in the CM, more than mock cells (soluble VEGFR-2): 7- to 8 fold | increase of VEGF-stimulated ERK1/2 phosphorylation [1]: 2-3 fold | MMP inhibitory activity in ECM and CM (reverse zymography) (MMPs): minimal MMP inhibitory activity | VEGF-stimulated migration of cells expressing TIMP3 variant (PAEKDR cells [2]): accentuated migratory response towards VEGF | VEGF-stimulated formation of membrane ruffles (PAEKDR cells [3]): a majority of mutant cells showed more striking edge ruffles | VEGF-stimulated tube formation (PAEKDR cells [4]): forming extensive tubular networks, but by day 5 the tubular structures started to regress and collapse | surface KDR labeling relative to empty vector or WT-TIMP3 cells (surface KDR): increased fluorescent labeling for surface KDR
